# Results reported in the supplement of paper PMC10724198.
# ± gives the standard deviation of the averaged measurements.
# System: Saccharomyces cerevisiae
# Test: protein stability index of tFT-peptide fusion (C-terminal peptide) (PSI (0-1 scale)); higher = more stable (slower turnover)
# Details: genetic background: wild type; temperature: 30 C
# 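Note: PSI is a weighted mean of sequencing reads over stability bins, variants kept only with over 10 reads, mCherry proximal and sfGFP distal, peptide attached via GGGS linker.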
row,Sequence,protein stability index
1,GWGVPGPEPREP,0.658 ± 0.064
2,AGKYCCFMVFVV,0.649 ± 0.033
3,VLGCSVIADSCR,0.637 ± 0.053
4,LGKSGLTILCRD,0.5954 ± 0.003
5,LVLPCLLLFPPS,0.711 ± 0.047
6,GGGGCVMGVGRV,0.668 ± 0.0092
7,GGLLGAGGGCGV,0.681 ± 0.046
8,LISSPKIHLRTY,0.742 ± 0.14
9,VVGPVLTCAVRF,0.617 ± 0.076
10,NHETRNCEGINS,0.657 ± 0.026
11,YQPLWTNTITGT,0.799 ± 0.17
12,SAVRLGANLCRT,0.6979 ± 0.0057
13,LPSPPRHPSAPR,0.683 ± 0.022
14,PLPPPSPSSLSP,0.713 ± 0.074
15,LTGSGSGQGSRN,0.688 ± 0.0097
16,RRNDRKKKSIRI,0.684 ± 0.059
17,VSARRTLRFSFE,0.685 ± 0.016
18,GGGGWGRGKGCW,0.719 ± 0.0079
19,THLASTESVVRP,0.69 ± 0.033
20,DLPRCTLSVEDT,0.703 ± 0.0078
21,NKREYYWINLEC,0.562 ± 0.014
22,MAVDSVIISAVF,0.592 ± 0.096
23,IDASPRFRDFLF,0.71 ± 0.022
24,LSFSFSPTSPPP,0.739 ± 0.072
25,PPLPPPLRPPPS,0.685 ± 0.026
26,GCVVLGFDSVAV,0.842 ± 0.2

row,Sequence,protein stability index
1,VRCCFGGRGAIA,0.6461 ± 0.0016
2,PLFPACYFHPFD,0.746 ± 0.032
3,LLSVPSLFCQFF,0.683 ± 0.057
4,GPCSSMFGLRYT,0.672 ± 0.033
5,SVLVLGRSRPSF,0.688 ± 0.047
6,SPEFIQAIQNPV,0.724 ± 0.049
7,SIPAPLAPLWGL,0.627 ± 0.055
8,PRSLPLDHPAPC,0.709 ± 0.085
9,PTARIPGLYLFP,0.695 ± 0.049
10,INKKKKKKSKQK,0.7 ± 0.089
11,LSPPPPPPVFSP,0.727 ± 0.026
12,CGRFCLQGEYIV,0.705 ± 0.12
13,GGYATYWVGVRL,0.697 ± 0.036
14,LLPPSPSSRPLF,0.723 ± 0.02
15,DVSIFTNELGFY,0.763 ± 0.01
16,GLACWALLTCNR,0.726 ± 0.015
17,PAPVFPILTPPY,0.734 ± 0.059
18,PPRPPSPAPPPP,0.687 ± 0.042
19,IHSPCAMRPLIS,0.672 ± 0.0087
20,DSVVGFCGYWGG,0.706 ± 0.088
21,GINEGRAISDDW,0.725 ± 0.021
22,NREPQPAHTHML,0.684 ± 0.043
23,VYGWSPLSEARN,0.738 ± 0.025
24,GGFFLFAVGVGN,0.627 ± 0.013
25,SSRRVGRWGGLG,0.618 ± 0.11
26,LQCRAEFQRARC,0.666 ± 0.031

row,Sequence,protein stability index
1,PKRTTHIGRIHE,0.6875 ± 0.006
2,PAPPLPPPPSPY,0.72 ± 0.11
3,LTPFQGLHLPIP,0.745 ± 0.037
4,SGVGSRDGVRGA,0.684 ± 0.048
5,HAHPDQTKLDTA,0.7 ± 0.063
6,DCDVLCGSGRRR,0.703 ± 0.026
7,WARLVSSSLAAT,0.61763 ± 0.00038
8,ARKCPLLYGPMA,0.662 ± 0.04
9,PPHPPPPSPALL,0.74 ± 0.01
10,VWRGVWQVVVGG,0.5227 ± 0.0013
11,WTGTTGQSLYLS,0.733 ± 0.1
12,GCFGLLVSSLFS,0.7111 ± 0.0024
13,LLPFHPPPPCPP,0.733 ± 0.033
14,PPSPHHPPPPAL,0.753 ± 0.0082
15,FAARASLSPLTR,0.855 ± 0.2
16,HVYDQLLSGAVA,0.691 ± 0.017
17,ILPPCVNIGSGV,0.64 ± 0.043
18,CVIGDKRRSKAI,0.6808 ± 0.0021
19,SSESPPLLPRPL,0.754 ± 0.032
20,FHSRGVASPQPP,0.682 ± 0.018
21,KYYRKKNIEKEN,0.575 ± 0.017
22,APLRSSCVFLFP,0.744 ± 0.17
23,VFATRALSQRLI,0.526 ± 0.011
24,RIAEYIDTKCPR,0.708 ± 0.0074
25,PLPHPPPPPPLP,0.768 ± 0.026
26,RRGLHWQAVCRY,0.733 ± 0.023

row,Sequence,protein stability index
1,YKNKRSNKRKHK,0.702 ± 0.0098
2,GRGFGFDITISS,0.712 ± 0.098
3,PEQKKRKVKIKK,0.686 ± 0.16
4,GKCTGSAEMRPQ,0.627 ± 0.079
5,VKGKLGSGSYIH,0.644 ± 0.022
6,GEECGRERLMCF,0.7291 ± 0.0055
7,AIGAVEGGRMRE,0.5748 ± 0.0048
8,PRIPHPPRPRPP,0.669 ± 0.024
9,FSSSSVRINLGV,0.663 ± 0.01
10,PSFLSPCPPFLS,0.747 ± 0.039
11,IISQLEQSFISP,0.7402 ± 0.0056
12,GNSGAFTPSTQW,0.687 ± 0.055
13,LLPPPPPASPAI,0.696 ± 0.01
14,GVCAVCRLGLVA,0.5574 ± 0.00072
15,RGQSGSLSKLLG,0.72 ± 0.026
16,WPVALAPTRLEI,0.608 ± 0.072
17,PLPSLLLLPPFP,0.701 ± 0.058
18,RVRSKNIKIRWK,0.798 ± 0.029
19,DPPPPSPPASMP,0.663 ± 0.036
20,DLGARWLFLLQT,0.622 ± 0.012
21,WCWTYLRFSVEL,0.677 ± 0.055
22,VVVGVGGGVDMG,0.685 ± 0.0082
23,LNDYGLADLGII,0.731 ± 0.0076
24,LLALHPLRSWPP,0.665 ± 0.016
25,WVAADTDGEPKH,0.6986 ± 0.0057
26,PLVVPPSPRPPP,0.735 ± 0.063

row,Sequence,protein stability index
1,PTPLPPPPPRPD,0.715 ± 0.063
2,PAGPPHPCPHPS,0.708 ± 0.05
3,AFVEGMAYLLII,0.524 ± 0.017
4,FFGGAGGTEGLG,0.689 ± 0.048
5,LNEGSDRTKNKK,0.709 ± 0.065
6,PPLPPLCRPLPP,0.685 ± 0.1
7,GHLRPFPPPLLP,0.748 ± 0.089
8,SVFFFLPIYFPF,0.633 ± 0.033
9,EESNEERDQEKT,0.63 ± 0.0065
10,THCSGAGPPSPP,0.689 ± 0.068
11,RAKRMVGQTIQE,0.765 ± 0.18
12,WSRPVTFRIGLW,0.653 ± 0.017
13,QCSVFSSPPRAL,0.723 ± 0.1
14,SPVHPSQHLWPP,0.615 ± 0.021
15,PPARPLFPLPRL,0.754 ± 0.077
16,WRELGCFGVRGD,0.732 ± 0.022
17,FNSFPPSPSLRP,0.729 ± 0.012
18,PPLSLPLCLSPL,0.6838 ± 0.0035
19,FSYCFRLLPSSL,0.558 ± 0.096
20,SSGASTSIVSTL,0.678 ± 0.015
21,LPLPHPQPTPYP,0.756 ± 0.046
22,RVYFGRPRSIVL,0.656 ± 0.025
23,SVWVCLASWCCG,0.5487 ± 0.0038
24,TNRNGQQRWEKG,0.64 ± 0.0078
25,AGGGGGVTASGA,0.71 ± 0.063
26,PSQTTRSPPPPP,0.708 ± 0.015

row,Sequence,protein stability index
1,SRLRVVRCVSWV,0.549 ± 0.1
2,SHLLPPPLTPAS,0.673 ± 0.031
3,TRPSRRPPRPSS,0.753 ± 0.22
4,SAPFSPSLTHHP,0.742 ± 0.14
5,IYVWALSPVTLP,0.628 ± 0.019
6,GDISILGSEYSM,0.728 ± 0.0091
7,MSKGKKKGVKRK,0.703 ± 0.013
8,GWHVGCGCTVFR,0.671 ± 0.061
9,VVGAGDWRWGVW,0.78884 ± 0.00041
10,HSSPPPAPPPLP,0.697 ± 0.019
11,PPRPRRPLHRSS,0.664 ± 0.011
12,RWGCVGWKVVGG,0.709 ± 0.1
13,GGEGGWLGEGIG,0.59 ± 0.0098
14,VDSAPRPPPEPC,0.649 ± 0.041
15,PLSHSPPAPSSP,0.658 ± 0.026
16,TQPDLAPPLPRS,0.65 ± 0.017
17,TEYRRRPNETAM,0.705 ± 0.037
18,PPRPLTPAPSDT,0.682 ± 0.014
19,RKKKKDKSAIKE,0.722 ± 0.018
20,VVAPETTPFSPR,0.7193 ± 0.007
21,SLWVLPGPVVLG,0.621 ± 0.039
22,LVRFVLNKYRGR,0.718 ± 0.012
23,KPKLSHPQPLRI,0.699 ± 0.016
24,GGSRVSGVVGKG,0.608 ± 0.0076
25,PITFPPSLPPPP,0.666 ± 0.045
26,FGFHSLSISFFM,0.611 ± 0.035

row,Sequence,protein stability index
1,LALPSWVRYASR,0.694 ± 0.016
2,VFVDGVSYGGLC,0.6811 ± 0.0058
3,GLVVCDGGGVGC,0.684 ± 0.14
4,SLSHSPSPPPPT,0.638 ± 0.0084
5,HGLPPPLPPLRS,0.689 ± 0.019
6,DKFEEENIKKKK,0.74 ± 0.026
7,CPPPFLCSPFVA,0.669 ± 0.022
8,QLHGWMTRNPLL,0.746 ± 0.051
9,KKGKQQKTEKNG,0.802 ± 0.26
10,MESGGVGRVVWR,0.655 ± 0.079
11,NTDSHIKIRKKI,0.7032 ± 0.0068
12,GGSGGRVGVAGG,0.645 ± 0.062
13,NMPGALETKMGV,0.599 ± 0.054
14,PNLPRHPFPPSS,0.74 ± 0.011
15,GLSWTVDDGHGG,0.683 ± 0.039
16,FCLLSCDTFSSS,0.6318 ± 0.0042
17,NYYLPLESCTIG,0.664 ± 0.03
18,GLGACMVNELLG,0.648 ± 0.018
19,EAVNLDSWAAGQ,0.828 ± 0.058
20,ERTDEKTAEKER,0.7012 ± 0.0049
21,VRRVWYGSFSRL,0.81 ± 0.012
22,KDKKERTTEKKT,0.693 ± 0.13
23,HPIPHDVSGRRN,0.784 ± 0.1
24,RRIIISSSYIYE,0.672 ± 0.012
25,TWYYRYSCCQLP,0.696 ± 0.014
26,TRQRSDRPRAPR,0.6523 ± 0.00075

row,Sequence,protein stability index
1,SSLPRPSHSLSL,0.617 ± 0.068
2,VVGAVFFGCRLL,0.6 ± 0.15
3,PLRFSSFSFPGW,0.739 ± 0.13
4,PGCNLPLVPPRL,0.701 ± 0.018
5,LLSSSLPVCLWS,0.733 ± 0.048
6,GYLGEIHLHYVQ,0.708 ± 0.048
7,ALSRLLPPRPPV,0.608 ± 0.027
8,RYLSVPGLEIPK,0.677 ± 0.068
9,VDSSGSQPRGNR,0.648 ± 0.039
10,GGGGRGGVVRSG,0.634 ± 0.095
11,LRSAPTLFTRPY,0.677 ± 0.0091
12,YLGCPSHLALPL,0.721 ± 0.076
13,VGVGDGLIRRSS,0.7338 ± 0.004
14,KCLALSAGWIAT,0.627 ± 0.033
15,PATTVAKGSHQF,0.717 ± 0.026
16,LHCRFDCTPFPY,0.67 ± 0.012
17,TSPPPPSPPAHH,0.625 ± 0.024
18,LHHGMVDDCIKK,0.70112 ± 0.00044
19,SCGMDLALGYAV,0.689 ± 0.061
20,KSKKKKKNKTNR,0.6792 ± 0.0022
